What all share (assay): EMSA
A general note: In EMSA bound probe runs differently from free probe, usually more slowly.

Data set [1] addresses T1, GST-p52 (WT) (Homo sapiens, UniProt Q00653 1-454).
T1 sequence: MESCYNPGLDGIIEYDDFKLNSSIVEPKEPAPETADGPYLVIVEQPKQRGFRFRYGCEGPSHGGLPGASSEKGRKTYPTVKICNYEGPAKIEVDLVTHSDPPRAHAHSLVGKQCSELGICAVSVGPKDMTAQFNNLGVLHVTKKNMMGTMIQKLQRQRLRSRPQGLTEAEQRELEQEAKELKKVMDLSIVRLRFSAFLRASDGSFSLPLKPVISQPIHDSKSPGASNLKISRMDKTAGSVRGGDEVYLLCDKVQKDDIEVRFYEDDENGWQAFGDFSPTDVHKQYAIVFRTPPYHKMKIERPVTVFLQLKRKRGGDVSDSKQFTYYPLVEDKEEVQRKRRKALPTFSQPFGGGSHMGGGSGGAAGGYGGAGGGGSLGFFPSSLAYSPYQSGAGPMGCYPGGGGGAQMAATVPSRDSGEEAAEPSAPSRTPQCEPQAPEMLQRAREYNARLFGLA

The target in data set [2] is T2, GST-ETS1 (Homo sapiens, UniProt P14921 1-441).
T2 sequence: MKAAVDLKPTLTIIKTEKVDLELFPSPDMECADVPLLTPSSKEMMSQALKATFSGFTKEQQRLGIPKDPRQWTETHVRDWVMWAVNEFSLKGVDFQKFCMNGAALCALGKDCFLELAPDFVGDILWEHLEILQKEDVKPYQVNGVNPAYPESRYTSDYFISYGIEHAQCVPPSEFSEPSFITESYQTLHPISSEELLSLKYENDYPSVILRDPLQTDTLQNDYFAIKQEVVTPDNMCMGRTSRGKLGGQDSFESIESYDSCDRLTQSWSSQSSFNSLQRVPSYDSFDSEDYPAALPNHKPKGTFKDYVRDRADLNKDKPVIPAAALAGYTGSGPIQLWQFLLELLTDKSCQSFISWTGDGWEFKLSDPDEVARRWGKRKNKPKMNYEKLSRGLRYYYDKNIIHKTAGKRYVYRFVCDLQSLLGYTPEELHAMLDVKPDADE

In data set [3] the target is T2, GST-ETS1. This is another data set of the same source.
For data set [4], the target named is T1, GST-p52 (WT). This is another data set of the same source.
The target of the next data set is T3, GST-p52 (WT);GST-ETS1 (Homo sapiens;Homo sapiens, UniProt Q00653;P14921 1-454;1-441, |).
T3 sequence 1: T1 sequence
T3 sequence 2: T2 sequence

Like-named read-outs stand apart in the source and are kept apart here.

Consider 2 molecules from article PMC4772727.

B1: WT TERT promoter probe (dsDNA)
DNA 1: GTCCCGACCCCTCCCGGGTCCCCGGC
DNA 2: GCCGGGGACCCGGGAGGGGTCGGGAC
For B1, the binding result with GST-p52 (WT) [1] is “binds”; in the data set with GST-ETS1 [2], “no binding”.

B2: C250T TERT promoter probe (dsDNA)
DNA 1: GTCCCGACCCCTTCCGGGTCCCCGGC
DNA 2: GCCGGGGACCCGGAAGGGGTCGGGAC
Regarding B2, the binding result with GST-ETS1 [3], with GST-p52 (WT) [4] and with GST-p52 (WT);GST-ETS1 was “binds” throughout.
